Reference: patent US6639060

Target: human erbB-3 protein, gp180^erbB-3 (human) (UniProt P21860)
Test: cell-based or functional assay

UniProt P21860, sequence (P21860 20-1342): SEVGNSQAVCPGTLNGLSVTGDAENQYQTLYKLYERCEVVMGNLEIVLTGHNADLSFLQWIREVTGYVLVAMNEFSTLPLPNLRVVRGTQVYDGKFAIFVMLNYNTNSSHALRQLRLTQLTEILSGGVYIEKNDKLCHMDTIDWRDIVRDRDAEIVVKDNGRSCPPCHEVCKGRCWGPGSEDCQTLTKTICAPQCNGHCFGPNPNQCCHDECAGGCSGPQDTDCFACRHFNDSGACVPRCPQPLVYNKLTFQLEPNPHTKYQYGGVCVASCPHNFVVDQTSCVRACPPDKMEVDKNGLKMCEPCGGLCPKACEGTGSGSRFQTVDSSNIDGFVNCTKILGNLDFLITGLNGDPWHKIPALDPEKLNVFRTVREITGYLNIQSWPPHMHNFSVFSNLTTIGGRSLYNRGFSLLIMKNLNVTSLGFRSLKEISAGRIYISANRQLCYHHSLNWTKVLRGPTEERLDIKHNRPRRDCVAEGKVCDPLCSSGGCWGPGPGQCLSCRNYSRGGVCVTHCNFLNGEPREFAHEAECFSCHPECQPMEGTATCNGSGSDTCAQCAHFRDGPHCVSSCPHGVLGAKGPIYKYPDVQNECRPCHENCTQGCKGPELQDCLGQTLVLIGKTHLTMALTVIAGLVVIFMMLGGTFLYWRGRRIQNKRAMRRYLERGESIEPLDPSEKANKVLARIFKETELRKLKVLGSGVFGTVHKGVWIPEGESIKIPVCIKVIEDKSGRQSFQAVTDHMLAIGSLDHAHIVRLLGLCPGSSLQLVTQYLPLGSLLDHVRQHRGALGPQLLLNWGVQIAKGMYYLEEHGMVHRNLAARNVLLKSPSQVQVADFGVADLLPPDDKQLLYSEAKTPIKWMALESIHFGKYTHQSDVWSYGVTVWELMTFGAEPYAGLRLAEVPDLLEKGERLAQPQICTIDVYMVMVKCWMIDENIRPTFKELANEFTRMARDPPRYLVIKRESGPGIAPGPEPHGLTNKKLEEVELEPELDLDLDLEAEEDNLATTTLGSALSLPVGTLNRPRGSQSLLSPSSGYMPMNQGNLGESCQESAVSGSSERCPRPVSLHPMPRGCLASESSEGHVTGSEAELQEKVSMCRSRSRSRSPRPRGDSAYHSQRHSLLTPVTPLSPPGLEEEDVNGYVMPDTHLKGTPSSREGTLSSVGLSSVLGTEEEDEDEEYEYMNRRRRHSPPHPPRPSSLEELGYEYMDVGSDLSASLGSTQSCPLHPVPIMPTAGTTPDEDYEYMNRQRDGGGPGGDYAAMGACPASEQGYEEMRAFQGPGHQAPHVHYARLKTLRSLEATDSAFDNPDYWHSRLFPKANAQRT

soft agar colonies/10^4 cells, + EGF 20 ng/ml (- EGF: 97) (colonies/10^4 cells): 94
Substance: EGF (epidermal growth factor) (ligand)
